Assay results taken from patent US20090208538A1 (ROCKEFELLER UNIVERSITY, published 2009).

How the values were obtained:
HLA-B*0702 [1] = target: HLA-B*0702 (human); assay: iTopia net score
HLA-B*0702 [2] = target: HLA-B*0702 (human); assay: iTopia affinity
HLA-B*0702 [3] = target: HLA-B*0702 (human); assay: iTopia off-rate
HLA-A*2402 [4] = target: HLA-A*2402 (human); assay: iTopia net score;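 note: iScore from iTopia software combining peptide binding, affinity over a dilution series and off-rate after warming to body temperature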
HLA-A*2402 [5] = target: HLA-A*2402 (human); assay: iTopia off-rate
HLA-A*2402 [6] = target: HLA-A*2402 (human); assay: iTopia affinity;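 note: peptide binding to HLA-A*2402 measured in iTopia kit format across eight serial peptide dilutions, ED50 derived from the resulting titration curve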
HLA-A*0301 [7] = target: HLA-A*0301 (human); assay: iTopia affinity
HLA-A*0301 [8] = target: HLA-A*0301 (human); assay: iTopia net score
HLA-A*0301 [9] = target: HLA-A*0301 (human); assay: iTopia off-rate
HLA-A*1101 [10] = target: HLA-A*1101 (human); assay: iTopia affinity;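 note: affinity derived from a titration of eight serial peptide dilutions, each run under the same conditions as the binding screen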
HLA-A*1101 [11] = target: HLA-A*1101 (human); assay: iTopia net score
HLA-A*1101 [12] = target: HLA-A*1101 (human); assay: iTopia off-rate
HLA-A*0201 [13] = target: T1, HLA-A*0201 (human); assay: iTopia affinity;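 note: peptide affinity for plate-bound HLA-A2 molecules (iTopia system), with ED50 derived from an eight-point serial peptide dilution series run under binding assay conditions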
T1 construct: also called HLA-A2.1; HLA A2.1

HLA-A*0201 [14] = target: T1, HLA-A*0201; assay: iTopia net score;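 note: combined score from peptide binding, ED₅₀ and half-life of peptide complexes with plate-bound HLA-A2 molecules, computed by a proprietary formula in iTopia software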
HLA-A*0201 [15] = target: T1, HLA-A*0201; assay: iTopia off-rate;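 note: Half-life of peptide complexes with plate-bound HLA-A2, peptides loaded 18 h at 21 C, washed, then held at 37 C over several time points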
HLA-A*0201 [16] = target: T1, HLA-A*0201; assay: iTopia binding;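 note: each peptide tested for binding to HLA-A2 molecules immobilized on plates, using a commercial screening kit run per its supplied protocol and reagents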

Row | iScore (HLA-B*0702 [1]) | ED50 (HLA-B*0702 [2]) [µM] | t1/2 (HLA-B*0702 [3]) | iScore (HLA-A*2402 [4]) | t1/2 (HLA-A*2402 [5]) | ED50 (HLA-A*2402 [6]) [µM] | ED50 (HLA-A*1101 [10]) [µM] | iScore (HLA-A*1101 [11]) | t1/2 (HLA-A*1101 [12]) | also measured | Binder
1 | 0.22 | 9.9 | 1.33 | – | – | – | – | – | – | – | VPESHRKPL [cdr2 298-306 VPESHRKPL]
2 | – | – | – | 0.081 | 1.32 | 43 | – | – | – | – | SSLAGSDIV [cdr2 316-324 SSLAGSDIV]
3 | – | – | – | – | – | – | – | – | – | ED50 (HLA-A*0301 [7]): 14 µM; iScore (HLA-A*0301 [8]): 0.436; t1/2 (HLA-A*0301 [9]): 6.47 | CIRRAKAVK [cdr2 331-339 CIRRAKAVK]
4 | – | – | – | – | – | – | 19 | 0.056 | 0.3 | – | GATGAYRAR [cdr2 238-246 GATGAYRAR]
5 | – | – | – | – | – | – | 24 | 0.103 | 1.1 | – | LQSQVEELK [cdr2 129-137 LQSQVEELK]
6 | – | – | – | 0.107 | 0.22 | 1.9 | – | – | – | ED50 (HLA-A*0201 [13]): 2 µM; iScore (HLA-A*0201 [14]): 0.645; t1/2 (HLA-A*0201 [15]): 8.1; binding vs positive control (HLA-A*0201 [16]): > 30% | YLTKQVELL [cdr2 65-73 YLTKQVELL]
7 | 0.031 | 73 | 1.83 | – | – | – | – | – | – | – | RTKYRSLSS [cdr2 444-452 RTKYRSLSS]
8 | – | – | – | – | – | – | 31 | 0.059 | 0.8 | – | SGWELASVN [cdr2 401-409 SGWELASVN]
9 | – | – | – | 0.446 | 0.78 | 0.26 | – | – | – | ED50 (HLA-A*0201 [13]): 5 µM; iScore (HLA-A*0201 [14]): 0.106; t1/2 (HLA-A*0201 [15]): 0.4; binding vs positive control (HLA-A*0201 [16]): > 30% | VFAEKITSL [cdr2 176-184 VFAEKITSL]
10 | – | – | – | – | – | – | 56 | 0.054 | 0.51 | – | ADSKASQQK [cdr2 103-111 ADSKASQQK]
11 | 0.068 | 47 | 0.58 | 0.116 | 1.26 | 9.2 | – | – | – | – | VPDSLYVPF [cdr2 275-283 VPDSLYVPF]
12 | – | – | – | 0.261 | 0.82 | 1.5 | – | – | – | ED50 (HLA-A*0201 [13]): 7 µM; iScore (HLA-A*0201 [14]): 0.512; t1/2 (HLA-A*0201 [15]): 10.5; binding vs positive control (HLA-A*0201 [16]): > 30% | KILSLTETI [cdr2 111-119 KILSLTETI]
13 | – | – | – | 0.117 | 0.25 | 0.7 | – | – | – | ED50 (HLA-A*0201 [13]): 0.8 µM; iScore (HLA-A*0201 [14]): 0.811; t1/2 (HLA-A*0201 [15]): 9.8; binding vs positive control (HLA-A*0201 [16]): > 30% | TMLQAQLSL [cdr2 203-211 TMLQAQLSL]
14 | 0.055 | 180 | 1.15 | – | – | – | – | – | – | – | KQVELLRQM [cdr2 68-76 KQVELLRQM]
15 | – | – | – | – | – | – | 26 | 0.058 | 0.31 | – | PPEYKALFK [cdr2 419-427 PPEYKALFK]
16 | – | – | – | – | – | – | 62 | 0.048 | 0.68 | – | LQEIEYLTK [cdr2 60-68 LQEIEYLTK]
17 | – | – | – | – | – | – | 7.9 | 0.238 | 1.56 | – | LTKQVELLR [cdr2 66-74 LTKQVELLR]
18 | – | – | – | 0.089 | 0.75 | 18 | – | – | – | – | YDHVFAEKI [cdr2 173-181 YDHVFAEKI]

Row | iScore (HLA-B*0702 [1]) | ED50 (HLA-B*0702 [2]) [µM] | t1/2 (HLA-B*0702 [3]) | iScore (HLA-A*2402 [4]) | t1/2 (HLA-A*2402 [5]) | ED50 (HLA-A*2402 [6]) [µM] | ED50 (HLA-A*1101 [10]) [µM] | iScore (HLA-A*1101 [11]) | t1/2 (HLA-A*1101 [12]) | also measured | Binder
19 | – | – | – | 0.095 | 0.72 | 18 | – | – | – | ED50 (HLA-A*0201 [13]): 30 µM; iScore (HLA-A*0201 [14]): 0.178; t1/2 (HLA-A*0201 [15]): 5.4; binding vs positive control (HLA-A*0201 [16]): > 30% | ECLQTNIDH [cdr2 120-128 ECLQTNIDH]
20 | – | – | – | 0.058 | 0.25 | 10 | – | – | – | – | QHAKVYEQL [cdr2 79-87 QHAKVYEQL]
21 | 0.205 | 5.5 | 1.29 | – | – | – | – | – | – | – | KPAPSFACL [cdr2 153-161 KPAPSFACL]
22 | 0.052 | 33 | 0.5 | – | – | – | – | – | – | – | LAAELGKTL [cdr2 30-38 LAAELGKTL]
23 | 0.067 | 18 | 1.19 | – | – | – | – | – | – | – | TSRAAAKDL [cdr2 381-389 TSRAAAKDL]
24 | – | – | – | 0.062 | 0.59 | 43 | – | – | – | ED50 (HLA-A*0201 [13]): 3 µM; iScore (HLA-A*0201 [14]): 0.132; t1/2 (HLA-A*0201 [15]): 0.6; binding vs positive control (HLA-A*0201 [16]): > 30% | TVTMLQAQL [cdr2 201-209 TVTMLQAQL]
25 | 0.077 | 18 | 0.74 | – | – | – | – | – | – | – | EVAEMRQML [cdr2 253-261 EVAEMRQML]
26 | – | – | – | 0.108 | 1.16 | 8.6 | 12 | 0.088 | 0.92 | – | IFSCIKKTK [cdr2 429-437 IFSCIKKTK]
27 | – | – | – | – | – | – | – | – | – | ED50 (HLA-A*0301 [7]): 34 µM; iScore (HLA-A*0301 [8]): 0.05; t1/2 (HLA-A*0301 [9]): 0.61 | HPFVNGVEK [cdr2 265-273 HPFVNGVEK]
28 | 0.05 | 93 | 1.13 | – | – | – | – | – | – | – | ENSELEQQL [cdr2 229-237 ENSELEQQL]
29 | – | – | – | – | – | – | 25 | 0.063 | 0.41 | – | PDSLYVPFK [cdr2 276-284 PDSLYVPFK]
30 | – | – | – | – | – | – | 20 | 0.136 | 1.78 | – | SPTTPPEYK [cdr2 415-423 SPTTPPEYK]
31 | – | – | – | – | – | – | – | – | – | ED50 (HLA-A*0301 [7]): 11 µM; iScore (HLA-A*0301 [8]): 0.122; t1/2 (HLA-A*0301 [9]): 2.19 | PAPSFACLK [cdr2 154-162 PAPSFACLK]
32 | 0.027 | 100 | 1.26 | 0.084 | 0.46 | 11 | – | – | – | – | TPPEYKALF [cdr2 418-426 TPPEYKALF]
33 | – | – | – | 0.157 | 0.27 | 1.6 | – | – | – | ED50 (HLA-A*0201 [13]): 0.5 µM; iScore (HLA-A*0201 [14]): 0.199; t1/2 (HLA-A*0201 [15]): 0.4; binding vs positive control (HLA-A*0201 [16]): > 30% | LYDLRQHFV [cdr2 164-172 LYDLRQHFV]
34 | – | – | – | – | – | – | 1.2 | 0.22 | 2.26 | – | KVKYEELLK [cdr2 357-365 KVKYEELLK]
35 | 0.054 | 34 | 0.49 | – | – | – | – | – | – | ED50 (HLA-A*0201 [13]): 7 µM; iScore (HLA-A*0201 [14]): 0.119; t1/2 (HLA-A*0201 [15]): 0.8; binding vs positive control (HLA-A*0201 [16]): > 30% | LVLKENSEL [cdr2 225-233 LVLKENSEL]
